In experiment [1] the target is complement component C1r (human).
Experiment [2] concerns the target CihC of B. recurrentis A17 (aa 20-356) (Borrelia recurrentis A17). Put plainly: ELISA; CihC/FbpC orthologs (5 µg/ml) immobilised, increasing plasminogen (0 to 1.5 µM); apparent dissociation constant by non-linear regression, one-site specific binding model. A general note: An ELISA detects its analyte on a solid surface through an enzyme-linked reagent.
Experiment [3] has as its target CihC/FbpC of B. hermsii FRO (aa 21-374) (Borrelia hermsii FRO). The description is as above.
The target in experiment [4] is CihC/FbpC ortholog of B. parkeri (aa 25-349) (Borrelia parkeri). The description is as above.
Experiment [5] has as its target CihC/FbpC ortholog of B. turicatae (aa 21-363) (Borrelia turicatae). The description is as above.

For “CihC of B. recurrentis A17 (aa 20-356) (natural protein)”, in experiment [1], the IC50 of inhibition of the classical pathway (MAC formation, anti-C5b-9 ELISA on IgM; NHS pre-incubated with 0.001 to 4 µM protein) is 62 nM.
Take “CihC-C of B. recurrentis (aa 195-356) (domain or fragment)”: the IC50 of inhibition of the classical pathway (MAC formation, anti-C5b-9 ELISA on IgM; NHS pre-incubated with 0.001 to 4 µM protein) in experiment [1] was 272 nM.
On the same count and under the same terms, to “CihC/FbpC of B. hermsii FRO (aa 21-374) (natural protein)” belongs 56 nM; to “CihC/FbpC ortholog of B. parkeri (aa 25-349) (natural protein)”, 63 nM; to “CihC/FbpC ortholog of B. turicatae (aa 21-363) (natural protein)”, 95 nM.
As for human glu-plasminogen (natural protein), the Kd in experiment [2] was found to be 93.1 nM; in experiment [3] it was 24.2 nM; in experiment [4], 62.7 nM; in experiment [5] it was 284 nM.

B1: C-terminal fragment of BBK32 of B. burgdorferi B31 (domain or fragment)
chain: SNRYQSYLEGVKYNVDSAIQTITKIYNTYTLFSTKLTQMYSTRLDNFAKAKAKEEAAKFTKEDLEKNFKTLLNYIQVSVKTAANFVYINDTHAKRKLENIEAEIKTLIAKIKEQSNLYEAYKAIVTSILLMRDSLKEVQGIID
B1 displayed an IC50 of inhibition of the classical pathway (MAC formation, anti-C5b-9 ELISA on IgM; NHS pre-incubated with 0.001 to 4 µM protein) in experiment [1] of 75 nM.

For the origin of these results see paper PMC11079166.
